Reference: US20140314789

Molecular target: Flag-tagged calcineurin-defective (ΔCalna) CRTC2 (UniProt Q3U182)
Sequence (Q3U182 whole entry, looked up, stated change not applied): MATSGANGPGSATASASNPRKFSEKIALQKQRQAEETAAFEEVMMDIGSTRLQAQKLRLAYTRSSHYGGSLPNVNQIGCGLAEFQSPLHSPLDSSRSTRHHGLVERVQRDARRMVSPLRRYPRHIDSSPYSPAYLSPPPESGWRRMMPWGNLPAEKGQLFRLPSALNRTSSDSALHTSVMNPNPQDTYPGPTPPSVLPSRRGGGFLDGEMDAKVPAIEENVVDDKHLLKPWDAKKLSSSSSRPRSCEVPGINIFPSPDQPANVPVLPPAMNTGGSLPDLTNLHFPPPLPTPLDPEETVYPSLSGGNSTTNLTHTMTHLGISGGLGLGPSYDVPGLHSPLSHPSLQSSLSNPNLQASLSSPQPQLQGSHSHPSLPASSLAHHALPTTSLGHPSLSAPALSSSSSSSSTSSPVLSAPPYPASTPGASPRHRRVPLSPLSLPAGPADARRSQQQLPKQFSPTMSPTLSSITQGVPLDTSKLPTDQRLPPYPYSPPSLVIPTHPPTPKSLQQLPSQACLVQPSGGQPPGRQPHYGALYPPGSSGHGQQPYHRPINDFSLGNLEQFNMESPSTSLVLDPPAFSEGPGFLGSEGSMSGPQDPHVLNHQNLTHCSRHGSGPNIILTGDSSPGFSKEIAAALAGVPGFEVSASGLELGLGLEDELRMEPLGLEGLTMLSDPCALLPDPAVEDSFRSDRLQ

Substance: HA-tagged calcineurin A (Calna)
- glucagon-dependent dephosphorylation of CRTC2, nuclear translocation, CRE-luc activation: mutation of both motifs disrupted the glucagon-dependent dephosphorylation of CRTC2 (FIG. 33B) and prevented its nuclear translocation (FIG. 38C), thereby down-regulating CRE-luc activation
